Data published in article PMC4273445 (eLife, 2014).

Columns and labels:
Assay in all cases: SPR
[1] = target: fHbp 1.P13 (N. meningitidis) (UniProt E6MV22)
[2] = target: fHbp V3.28 His (at V1 His248) to Ala (N. meningitidis)
[3] = target: fHbp V3.28 Lys (at V1 Lys92) to Ala (N. meningitidis)
[4] = target: fHbp V1.1 Asp262 to Ala (N. meningitidis)
[5] = target: fHbp V3.28 Ser (at V1 Ser104) to Ala (N. meningitidis)
[6] = target: fHbp V3.28 Ile (at V1 Ile273) to Ala (N. meningitidis)
[7] = target: fHbp V1.1 Pro265 to Ala (N. meningitidis)
[8] = target: fHbp 2.P19 (N. meningitidis) (UniProt E6MV22)
[9] = target: fHbp V2.21 His (at V1 Ser288) to Ala (N. meningitidis)
[10] = target: fHbp V1.1 Ser288 to Ala (N. meningitidis)
[11] = target: fHbp V3.28 Ala (at V1 Glu157) to Glu (N. meningitidis)
[12] = target: fHbp V1.1 His313 to Ala (N. meningitidis)
[13] = target: fHbp 1.P61 (N. meningitidis) (UniProt E6MV22)
[14] = target: fHbp V3.28 Leu (at V1 Leu289) to Ala (N. meningitidis)
[15] = target: fHbp V1.1 Ser182 to Ala (N. meningitidis)
[16] = target: fHbp 1.P5 (N. meningitidis) (UniProt E6MV22)
[17] = target: fHbp V2.21 Gln (at V1 Gln103) to Ala (N. meningitidis)
[18] = target: fHbp V1.1 Asp181 to Ala (N. meningitidis)
[19] = target: fHbp V1.1 Ser274 to Ala (N. meningitidis)
[20] = target: fHbp V1.1 Lys92 to Ala (N. meningitidis)
[21] = target: fHbp V1.1 Phe194 to Ala (N. meningitidis)
[22] = target: fHbp V3.28 Lys (at V1 Lys306) to Ala (N. meningitidis)
[23] = target: fHbp V3.28 Lys (at V1 Lys264) to Ala (N. meningitidis)
[24] = target: fHbp V1.1 Lys306 to Ala (N. meningitidis)
[25] = target: fHbp V1.1 Ile196 to Ala (N. meningitidis)
[26] = target: fHbp V3.28 His (at V1 Ser288) to Ala (N. meningitidis)
[27] = target: fHbp 1.P15 (N. meningitidis) (UniProt E6MV22)
[28] = target: fHbp 3.P45 (N. meningitidis) (UniProt E6MV22)
[29] = target: fHbp V2.21 Pro (at V1 Ser182) to Ala (N. meningitidis)
[30] = target: fHbp V3.28 Ala (at V1 Pro265) to Pro (N. meningitidis)
[31] = target: fHbp V2.21 Ile (at V1 Ile179) to Ala (N. meningitidis)
[32] = target: factor H binding protein (fHbp) V2.21 (N. meningitidis) (UniProt E6MV22)
[33] = target: fHbp 1.P9 (N. meningitidis) (UniProt E6MV22)
[34] = target: fHbp V3.28 Glu (at V1 Glu283) to Ala (N. meningitidis)
[35] = target: fHbp V3.28 Ile (at V1 Ile179) to Ala (N. meningitidis)
[36] = target: fHbp V1.1 His203 to Ala (N. meningitidis)
[37] = target: fHbp V1.1 Ser302 to Ala (N. meningitidis)
[38] = target: fHbp 3.P30 (N. meningitidis) (UniProt E6MV22)
[39] = target: fHbp V2.21 Glu (at V1 Glu109) to Ala (N. meningitidis)
[40] = target: fHbp V1.1 Asn108 to Ala (N. meningitidis)
[41] = target: fHbp V2.21 Lys (at V1 Lys107) to Ala (N. meningitidis)
[42] = target: fHbp V2.21 Leu (at V1 Leu156) to Ala (N. meningitidis)
[43] = target: fHbp V2.21 Ser (at V1 Ser104) to Ala (N. meningitidis)
[44] = target: fHbp V3.28 Leu (at V1 Leu156) to Ala (N. meningitidis)
[45] = target: fHbp V1.1 Lys107 to Ala (N. meningitidis)
[46] = target: fHbp V2.21 Leu (at V1 Ser274) to Ala (N. meningitidis)
[47] = target: fHbp 1.P10 (N. meningitidis) (UniProt E6MV22)
[48] = target: fHbp V3.28 Leu (at V1 Ile199) to Ala (N. meningitidis)

Sequence of CFH67, CCP domains 6 and 7 of complement factor H (P08603 321-443): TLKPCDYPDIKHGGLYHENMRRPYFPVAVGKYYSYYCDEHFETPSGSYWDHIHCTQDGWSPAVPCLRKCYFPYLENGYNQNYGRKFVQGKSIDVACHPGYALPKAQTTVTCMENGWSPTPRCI

“CFH67, CCP domains 6 and 7 of complement factor H (from UniProt P08603 321-443) (domain or fragment)” gave a Kd [1] of 10.7 nM, a Kd [2] of 2.97 nM and a Kd [3] of 2.67 nM. The Kd [4] was 6.54 nM, the Kd [5] was 8.99 nM and the Kd [6] was 0.201 nM. For the same substance, the Kd [7] was 3.62 nM, the Kd [8] was 1.91 nM and the Kd [9] was 6.77 nM. For the same substance, the Kd [10] was 2.87 nM, the Kd [11] was 37.5 nM and the Kd [12] was 23.5 nM. For the same substance, the Kd [13] was 2.28 nM, the Kd [14] was 1.29 nM and the Kd [15] was 4.35 nM. The Kd [16] was 4.8 nM, the Kd [17] was 6.01 nM and the Kd [18] was 4.14 nM. The Kd [19] was 11.3 nM, the Kd [20] was 4.4 nM and the Kd [21] was 5.04 nM. The Kd [22] was 10.7 nM, the Kd [23] was 21.1 nM and the Kd [24] was 2.94 nM. It also gave a Kd [25] of 1.07 nM, a Kd [26] of 7.66 nM and a Kd [27] of 11.7 nM. The Kd [28] was 0.227 nM, the Kd [29] was 7.98 nM and the Kd [30] was 3.76 nM. The Kd [31] was 12 nM, the Kd [32] was 1.87 nM and the Kd [33] was 4.87 nM. The Kd [34] was 11.9 nM, the Kd [35] was 9.91 nM and the Kd [36] was 1.8 nM. The Kd [37] was 0.592 nM, the Kd [38] was 1.97 nM and the Kd [39] was 2.34 nM. For the same substance, the Kd [40] was 3.73 nM, the Kd [41] was 3.06 nM and the Kd [42] was 4.7 nM. It also gave a Kd [43] of 2.52 nM, a Kd [44] of 28.8 nM and a Kd [45] of 9.59 nM. For the same substance, the Kd [46] was 23.9 nM, the Kd [47] was 15.2 nM and the Kd [48] was 25.8 nM.
For “CFHR3_(12), the first two (N-terminal) CCP domains of complement factor H-related 3 (from UniProt Q02985 19-330) (domain or fragment)”, the Kd [1] was 54.3 nM, the Kd [2] was 3.61 nM and the Kd [3] was 3.39 nM. The Kd [4] was 89.2 nM, the Kd [5] was 7.19 nM and the Kd [6] was 0.292 nM. The Kd [7] was 130 nM, the Kd [8] was 2.11 nM and the Kd [9] was 7.63 nM. For the same substance, the Kd [10] was 57.5 nM, the Kd [11] was 4.35 nM and the Kd [12] was 50.5 nM. For the same substance, the Kd [13] was 26.4 nM, the Kd [14] was 1.18 nM and the Kd [15] was 83.7 nM. For the same substance, the Kd [16] was 55.2 nM, the Kd [17] was 4.01 nM and the Kd [18] was 52.5 nM. It also gave a Kd [19] of 43.5 nM, a Kd [20] of 71.9 nM and a Kd [21] of 160 nM. The Kd [22] was 9.34 nM, the Kd [23] was 29.2 nM and the Kd [24] was 57.7 nM. It also gave a Kd [25] of 35.2 nM, a Kd [26] of 9.65 nM and a Kd [27] of 56.4 nM. For the same substance, the Kd [28] was 0.779 nM, the Kd [29] was 5.84 nM and the Kd [30] was 4.82 nM. It also gave a Kd [31] of 7.84 nM, a Kd [32] of 3.73 nM and a Kd [33] of 41.1 nM. For the same substance, the Kd [34] was 20.6 nM, the Kd [35] was 6.98 nM and the Kd [36] was 32.6 nM. For the same substance, the Kd [37] was 17.2 nM, the Kd [38] was 2.93 nM and the Kd [39] was 4.62 nM. For the same substance, the Kd [40] was 90.7 nM, the Kd [41] was 4.47 nM and the Kd [42] was 7.54 nM. For the same substance, the Kd [43] was 4.91 nM, the Kd [44] was 51.9 nM and the Kd [45] was 174 nM. For the same substance, the Kd [46] was 17.8 nM, the Kd [47] was 119 nM and the Kd [48] was 34.6 nM.
